The values below come from the Immune Epitope Database (IEDB).

A value given as a limit tells only on which side of the number the result lay.

For experiment [1], the target named is HLA-A*01:01. In words: IEDB peptide-MHC binding, purified MHC/competitive/fluorescence; filed as Kd, often an IC50 or EC50 that approximates it; ≥ and ≤ were set here for values at or beyond the usual limits of such assays. As to conditions: source organism: Mycobacterium tuberculosis variant bovis BCG str. Pasteur 1173P2.
Experiment [2] concerns the target HLA-A*02:01. The experiment is described as above. As to conditions: source organism: Mycobacterium tuberculosis variant bovis BCG str. Pasteur 1173P2.
Experiment [3] concerns the target HLA-A*02:03. The experiment is described as above. To be noted: source organism: Mycobacterium tuberculosis variant bovis BCG str. Pasteur 1173P2.
The target in experiment [4] is HLA-A*02:06. Described as above. To be noted: source organism: Mycobacterium tuberculosis variant bovis BCG str. Pasteur 1173P2.
In experiment [5] the target is HLA-A*03:01. Described as above. To be noted: source organism: Mycobacterium tuberculosis variant bovis BCG str. Pasteur 1173P2.
The target in experiment [6] is HLA-A*11:01. The experiment is described as above. To be noted: source organism: Mycobacterium tuberculosis variant bovis BCG str. Pasteur 1173P2.
The target of experiment [7] is HLA-A*30:01. The experiment is described as above. As to conditions: source organism: Mycobacterium tuberculosis variant bovis BCG str. Pasteur 1173P2.
The target of experiment [8] is HLA-A*31:01. The experiment is described as above. As to conditions: source organism: Mycobacterium tuberculosis variant bovis BCG str. Pasteur 1173P2.
The target of experiment [9] is HLA-A*69:01. The description is as above. To be noted: source organism: Mycobacterium tuberculosis variant bovis BCG str. Pasteur 1173P2.
The target of experiment [10] is HLA-B*15:01. The description is as above. To be noted: source organism: Mycobacterium tuberculosis variant bovis BCG str. Pasteur 1173P2.
Experiment [11] deals with HLA-B*15:09. Described as above. As to conditions: source organism: Mycobacterium tuberculosis variant bovis BCG str. Pasteur 1173P2.
For experiment [12], the target named is HLA-B*15:17. Described as above. To be noted: source organism: Mycobacterium tuberculosis variant bovis BCG str. Pasteur 1173P2.
Experiment [13] has as its target HLA-B*15:42. Described as above. As to conditions: source organism: Mycobacterium tuberculosis variant bovis BCG str. Pasteur 1173P2.
Experiment [14] deals with HLA-B*18:01. The description is as above. As to conditions: source organism: Mycobacterium tuberculosis variant bovis BCG str. Pasteur 1173P2.
For experiment [15], the target named is HLA-B*27:05. The experiment is described as above. To be noted: source organism: Mycobacterium tuberculosis variant bovis BCG str. Pasteur 1173P2.
The target of experiment [16] is HLA-B*35:01. The experiment is described as above. To be noted: source organism: Mycobacterium tuberculosis variant bovis BCG str. Pasteur 1173P2.
Experiment [17] has as its target HLA-B*39:01. The description is as above. As to conditions: source organism: Mycobacterium tuberculosis variant bovis BCG str. Pasteur 1173P2.
Experiment [18] deals with HLA-B*40:01. Described as above. As to conditions: source organism: Mycobacterium tuberculosis variant bovis BCG str. Pasteur 1173P2.
For experiment [19], the target named is HLA-B*45:06. The description is as above. To be noted: source organism: Mycobacterium tuberculosis variant bovis BCG str. Pasteur 1173P2.
Experiment [20] deals with HLA-B*46:01. The description is as above. To be noted: source organism: Mycobacterium tuberculosis variant bovis BCG str. Pasteur 1173P2.
Experiment [21] concerns the target HLA-B*48:01. The description is as above. As to conditions: source organism: Mycobacterium tuberculosis variant bovis BCG str. Pasteur 1173P2.
In experiment [22] the target is HLA-B*51:01. The experiment is described as above. To be noted: source organism: Mycobacterium tuberculosis variant bovis BCG str. Pasteur 1173P2.
In experiment [23] the target is HLA-B*57:01. The description is as above. As to conditions: source organism: Mycobacterium tuberculosis variant bovis BCG str. Pasteur 1173P2.
In experiment [24] the target is HLA-B*58:01. The experiment is described as above. As to conditions: source organism: Mycobacterium tuberculosis variant bovis BCG str. Pasteur 1173P2.
In experiment [25] the target is HLA-B*83:01. The experiment is described as above. As to conditions: source organism: Mycobacterium tuberculosis variant bovis BCG str. Pasteur 1173P2.
In experiment [26] the target is HLA-B*52:01. In words: IEDB peptide-MHC binding, purified MHC/competitive/radioactivity; filed as Kd, often an IC50 or EC50 that approximates it; ≥ and ≤ were set here for values at or beyond the usual limits of such assays. As to conditions: source organism: Homo sapiens.
In experiment [27] the target is HLA-B*40:02. In words: IEDB peptide-MHC binding, cellular MHC/competitive/fluorescence; ≥ and ≤ were set here for values at or beyond the usual limits of such assays. To be noted: source organism: Homo sapiens.
Experiment [28] concerns the target HLA-B*27:05. In words: IEDB peptide-MHC binding, purified MHC/competitive/fluorescence; ≥ and ≤ were set here for values at or beyond the usual limits of such assays. To be noted: source organism: hepatitis C virus genotype 1a.
Experiment [29] deals with HLA-A*01:01. Nature of the experiment: IEDB peptide-MHC binding, purified MHC/direct/fluorescence; filed as Kd, often an IC50 or EC50 that approximates it; ≥ and ≤ were set here for values at or beyond the usual limits of such assays. As to conditions: source organism: Brucella abortus.
The target in experiment [30] is HLA-A*02:01. The experiment is described as above. As to conditions: source organism: Brucella abortus.
The target of experiment [31] is HLA-A*02:03. The description is as above. To be noted: source organism: Brucella suis 1330.
Experiment [32] concerns the target HLA-A*02:11. The description is as above. To be noted: source organism: Brucella suis 1330.
In experiment [33] the target is HLA-A*02:12. Described as above. As to conditions: source organism: Brucella suis 1330.
Experiment [34] deals with HLA-A*02:19. The description is as above. As to conditions: source organism: Brucella suis 1330.
The target in experiment [35] is HLA-A*03:01. The description is as above. To be noted: source organism: Brucella abortus.
Experiment [36] has as its target HLA-A*11:01. The description is as above. To be noted: source organism: Brucella abortus.
The target in experiment [37] is HLA-A*26:01. The description is as above. As to conditions: source organism: Brucella suis 1330.
Experiment [38] deals with HLA-A*31:01. The experiment is described as above. To be noted: source organism: Brucella abortus.
The target in experiment [39] is HLA-A*69:01. The experiment is described as above. To be noted: source organism: Brucella abortus.
Experiment [40] concerns the target HLA-B*07:02. The experiment is described as above. As to conditions: source organism: Brucella abortus.
In experiment [41] the target is HLA-B*08:01. Described as above. As to conditions: source organism: Brucella suis 1330.
For experiment [42], the target named is HLA-B*15:01. Described as above. As to conditions: source organism: Brucella abortus.
The target in experiment [43] is HLA-B*27:05. The description is as above. As to conditions: source organism: Brucella abortus.
Experiment [44] deals with HLA-B*40:01. The description is as above. To be noted: source organism: Brucella abortus.
For experiment [45], the target named is HLA-B*44:02. The experiment is described as above. To be noted: source organism: Brucella abortus.
Experiment [46] concerns the target HLA-B*58:01. The description is as above. To be noted: source organism: Brucella abortus.
Experiment [47] has as its target HLA-C*12:03. The description is as above. To be noted: source organism: Brucella abortus bv. 1 str. 9-941.
Experiment [48] concerns the target HLA-A*02:01. In words: IEDB peptide-MHC binding, cellular MHC/competitive/fluorescence; ≥ and ≤ were set here for values at or beyond the usual limits of such assays. As to conditions: source organism: Homo sapiens.

For KPIPHRTVL, the Kd in [1] was 570 nM; in experiment [2], at least 20000 nM; in experiment [3], at least 20000 nM; in experiment [4], 2830 nM; in experiment [5] it was 2290 nM; in experiment [6], 125 nM. The Kd in [7] was 763 nM; in [8] it was at least 20000 nM; in experiment [9], at least 20000 nM; in experiment [10], at least 20000 nM; in experiment [11], 1320 nM; in experiment [12] it was at least 20000 nM. Besides, the Kd in experiment [13] was at least 5000 nM; in [14], at least 20000 nM; in experiment [15], at least 20000 nM; in experiment [16] it was 623 nM; in experiment [17], 18.8 nM; in experiment [18], at least 20000 nM. Besides, the Kd in [19] is at least 5000 nM; in [20] it was at least 20000 nM; in experiment [21], at least 20000 nM; in experiment [22], at least 20000 nM; in experiment [23], at least 20000 nM; in experiment [24], at least 20000 nM. The Kd in [25] was found to be 762 nM.

Regarding QQITQTEV, in [26], the Kd was at least 30200 nM.

As to GSFSRFYSL, in [27], the IC50 turned out to be 300 nM.

The sequence GSAAICGKY yielded an IC50 in experiment [28] of 4820 nM.

Turning to KLYERNTAF, the Kd in [29] was at least 20000 nM; in [30] it was 286 nM; in [31] it was 27 nM; in experiment [32], 9 nM; in experiment [33] it was 88 nM; in [34], at least 5000 nM. Besides, the Kd in experiment [35] was 511 nM; in experiment [36] it was 3990 nM; in experiment [37] it was at least 20000 nM; in [38], 138 nM; in experiment [39] it was at least 20000 nM; in [40], at least 20000 nM. The Kd is 112 nM in experiment [41]; 57.8 nM in experiment [42]; 325 nM in experiment [43]; at least 20000 nM in experiment [44]; at least 20000 nM in [45]; 284 nM in experiment [46]. In experiment [47], this sequence came in with a Kd of 266 nM.

In [48], FLMDFIHQV displayed an IC50 of 240 nM. In other words, the sub-micromolar range.
